{
  "source": "paper PMC6522352",
  "origin": "cited, not measured here",
  "target": "IL-9 (Mus musculus) (UniProt P15247)",
  "sequence (P15247 19-144)": "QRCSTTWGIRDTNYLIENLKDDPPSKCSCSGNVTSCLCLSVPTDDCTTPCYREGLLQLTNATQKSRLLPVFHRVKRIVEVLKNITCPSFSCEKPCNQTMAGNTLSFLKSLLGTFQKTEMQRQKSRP",
  "data": [
    {"substance": "IL-9 receptor alpha (from UniProt Q01114)", "values": [
      {"measurement": "Kd", "result": 0.1, "unit": "nM"}
    ]}
  ]
}
